Reference: patent publication US20210122818A1 (BIOUNIVERSA S R L, published 2021)

Molecular target: T1, recombinant BAG3 full-length protein (UniProt O95817 2-575, limits assumed)
T1 construct: mature; also called rBAG3; E. Coli rBAG3
Experiment: method for the murine antibody not stated (Example 3, Octet)

T1 sequence (O95817 2-575 limits assumed): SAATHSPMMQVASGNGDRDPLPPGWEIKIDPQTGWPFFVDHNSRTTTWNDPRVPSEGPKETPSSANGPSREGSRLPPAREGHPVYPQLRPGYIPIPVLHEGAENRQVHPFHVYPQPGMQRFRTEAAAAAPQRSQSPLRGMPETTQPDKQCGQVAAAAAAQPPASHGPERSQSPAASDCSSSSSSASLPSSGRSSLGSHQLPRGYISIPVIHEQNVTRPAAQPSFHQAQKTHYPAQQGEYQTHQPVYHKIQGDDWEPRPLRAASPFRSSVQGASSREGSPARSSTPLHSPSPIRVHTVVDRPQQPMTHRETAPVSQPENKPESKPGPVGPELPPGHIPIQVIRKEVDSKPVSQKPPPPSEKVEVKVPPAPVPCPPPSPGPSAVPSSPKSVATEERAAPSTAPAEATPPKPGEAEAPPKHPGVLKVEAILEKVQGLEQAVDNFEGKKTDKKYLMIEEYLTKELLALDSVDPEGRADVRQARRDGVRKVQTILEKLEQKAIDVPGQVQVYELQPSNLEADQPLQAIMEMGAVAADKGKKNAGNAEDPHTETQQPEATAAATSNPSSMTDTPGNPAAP

B1: AC-2 murine antibody (antibody, V domains shown)
VH: EVQLQQSGAELVKPGASVKLSCTASGFNIKDTYMYWVKQRPEQGLEWIGGVDPANGNTRYDPKFQGKATLTADTSSSTAYLQLSSLTSEDTAVYYCGRDGAMDYWGQGTSVTVSS
VL: DIVMSQSPSSLAVSVGEKVTMSCKSSQSLLYSSNQKNYLAWHQQKPGQSPKLLIYWASTRESGVPDRFTGSGSGTDFTLTISSVKAEDLAIYYCQQYYTYPLTFGAGTKLELK
notes: Murine hybridoma antibody; also called anti-BAG3 mouse antibody (AC2); murine anti-BAG AC-2 antibody
  Kd: 1 pM
